# Laboratory results taken from publication PMC9606039, “Molecular analysis of a public cross-neutralizing antibody response to SARS-CoV-2” (Cell Reports, 2022).
# Biological target: T1, receptor-binding domain (RBD) (residues 319-541) of the SARS-CoV-2 spike (S) protein (SARS-CoV-2, ancestral Wuhan-Hu-1 …, UniProt P0DTC2)
# T1 construct: also called SARS-CoV-2 RBD; wild-type RBD
# Experiment: BLI
# Details: both partners purified
binder,measurement,value
"2-7 D54N Fab (Fab, V domains shown) VH: QITLKESGPTLVKPTQTLTLTCTFSGFSLSTSGVGVGWIRQPPGKALEWLALIYWNDDKRYSPSLKSRLTITKDTSKNQVVLTMTNMDPVDTATYYCAHHKIERIFDYWGQGTLVTVSS VL: QSALAQPASVSGSPGQSITISCTGTSSDVGAYNYVSWYQQHPGKAPKLMIYDVSKRPSGVSNRFSGSKSGNTASLTISGLQAEDEADYYCSSYTTSSTVFGGGTKLTVL",fold weakening of KD against the wild-type Fab,≥ 100 fold
